From patent publication US20240190966A1
Several values for one entry are separate records, joined by “and”; a condition that tells them apart may be missing. Equal entries are not always repeated. Where two headings read alike, the source gives them in different places.

T1: 27mer cyno CD3 polypeptide conjugated to biotin (cynomolgus monkey)
T1 sequence (peptide, biotin conjugated (site not stated)): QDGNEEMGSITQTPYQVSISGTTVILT


Assays:
[1] = biological target: T1, 27mer cyno CD3 polypeptide conjugated to biotin (cynomolgus monkey); assay: BIAcore T200 SPR; biotinylated 27mer CD3 peptide on SA chip; TDB flowed at 37 C
[2] = biological target: T1, 27mer cyno CD3 polypeptide conjugated to biotin (cynomolgus monkey); assay: as above; remark: listed apart in the source
[3] = biological target: cynomolgus monkey LY6G6D-Fc (cynomolgus monkey); assay: BIAcore SPR; two-cell TDB with 38E4.v1 arm
[4] = biological target: cynomolgus monkey LY6G6D-Fc (cynomolgus monkey); assay: BIAcore SPR; LY6G6D-Fc immobilized; TDB flowed at 37 C
[5] = biological target: cynomolgus monkey LY6G6D-Fc (cynomolgus monkey); assay: as above; remark: listed apart in the source

| Binder | Kd [1] | koff [1] | kon [1] | Kd [2] [nM] | Kd [3] [nM] | Kd [4] [nM] | koff [4] [s⁻¹] | kon [4] [M⁻¹ s⁻¹] | Kd [5] [nM] | koff [5] [s⁻¹] | kon [5] [M⁻¹ s⁻¹] |
| --- | --- | --- | --- | --- | --- | --- | --- | --- | --- | --- | --- |
| LY6G6D TDB assembled using a one-cell system, anti-LY6G6D 20A12.QNTv12 arm (one-cell) and anti-CD3 38E4v1 (WT) arm (bispecific antibody, V domains shown) VH 1: EVQLLESGGGLVQPGGSLRLSCAASGFDFVNNAMIWVREAPGKGLEWVSALSFADNTAYYATWASGRFTISRDSSKTTVYLQMNSLRAEDTAVYYCMRGDLWGPGTLVTVSS VL 1: DIQMTQSPSTLSASVGDRVTITCQASESITRYLNWYQKKPGKAPKLLIYDASKLPSGVPSRFSGSGSGTEFTLTISSLQPDDFATYYCQSTSFRGRSYQNTFGGGTKVEIK VH 2: EVQLVQSGAEVKKPGASVKVSCKASGFTFTSYYIHWVRKAPGQGLEWIGWIYPENDNTKYNEKFKDRVTITADTSTSTAYLELSSLRSEDTAVYYCARDGYSRYYFDYWGQGTLVTVSS VL 2: DIVMTQSPDSLAVSLGERATINCKSSQSLLNSRTRKNYLAWYQEKPGQSPKLLIYWTSTRKSGVPDRFSGSGSGTDFTLTISSLQAEDVAVYYCKQSFILRTFGQGTKVEIK | 15.4 nM and 16.5 nM | 0.0399 s⁻¹ and 0.0437 s⁻¹ | 2.6e+06 M⁻¹ s⁻¹ and 2.65e+06 M⁻¹ s⁻¹ | 15.9 |  |  |  |  |  |  |  |
| LY6G6D TDB comprising the anti-LY6G6D 20A12.QNTv12 arm (two-cell) and the anti-CD3 38E4.v1 arm (bispecific antibody, V domains shown) VH 1: EVQLLESGGGLVQPGGSLRLSCAASGFDFVNNAMIWVRQAPGKGLEWVSALSFADNTAYYATWASGRFTISRDSSKTTVYLQMNSLRAEDTAVYYCMRGDLWGPGTLVTVSS VL 1: DIQMTQSPSTLSASVGDRVTITCQASESITRYLNWYQQKPGKAPKLLIYDASKLPSGVPSRFSGSGSGTEFTLTISSLQPDDFATYYCQSTSFRGRSYQNTFGGGTKVEIK VH 2: EVQLVQSGAEVKKPGASVKVSCKASGFTFTSYYIHWVRQAPGQGLEWIGWIYPENDNTKYNEKFKDRVTITADTSTSTAYLELSSLRSEDTAVYYCARDGYSRYYFDYWGQGTLVTVSS VL 2: DIVMTQSPDSLAVSLGERATINCKSSQSLLNSRTRKNYLAWYQQKPGQSPKLLIYWTSTRKSGVPDRFSGSGSGTDFTLTISSLQAEDVAVYYCKQSFILRTFGQGTKVEIK | 13 nM and 16.5 nM | 0.0337 s⁻¹ and 0.0364 s⁻¹ | 2.6e+06 M⁻¹ s⁻¹ and 2.21e+06 M⁻¹ s⁻¹ | 14.8 | 2.29 | 2.29 | 0.00038 | 166000 | 1.92 | 0.000444 | 231000 |
| LY6G6D TDB assembled using a one-cell system, anti-LY6G6D 20A12.QNTv12 arm (one-cell) and anti-CD3 38E4.v1 MD4 arm (bispecific antibody, V domains shown) VH 1: EVQLLESGGGLVQPGGSLRLSCAASGFDFVNNAMIWVREAPGKGLEWVSALSFADNTAYYATWASGRFTISRDSSKTTVYLQMNSLRAEDTAVYYCMRGDLWGPGTLVTVSS VL 1: DIQMTQSPSTLSASVGDRVTITCQASESITRYLNWYQKKPGKAPKLLIYDASKLPSGVPSRFSGSGSGTEFTLTISSLQPDDFATYYCQSTSFRGRSYQNTFGGGTKVEIK VH 2: EVQLVQSGAEVKKPGASVKVSCKASGFTFTSYYIHWVRKAPGQGLEWIGWIYPENDNTKYNEKFKDRVTITADTSTSTAYLELSSLRSEDTAVYYCARDGYSRYYFDYWGQGTLVTVSS VL 2: DIVMTQSPDSLAVSLGERATINCKSSQSLLNSRTRKNYLAWYQEKPGQPPKLLIYWASTRKSGVPDRFSGSGSGTDFTLTISSLQAEDVAVYYCKQSFILRTFGQGTKVEIK | 14 nM and 14.7 nM | 0.0433 s⁻¹ and 0.0426 s⁻¹ | 3.09e+06 M⁻¹ s⁻¹ and 2.89e+06 M⁻¹ s⁻¹ | 14.4 |  |  |  |  | 2.62 | 0.000574 | 219000 |
| LY6G6D TDB assembled using a one-cell system, anti-LY6G6D 20A12.QNTv12 arm (one-cell) and anti-CD3 38E4.v1 MD1 arm (bispecific antibody, V domains shown) VH 1: EVQLLESGGGLVQPGGSLRLSCAASGFDFVNNAMIWVREAPGKGLEWVSALSFADNTAYYATWASGRFTISRDSSKTTVYLQMNSLRAEDTAVYYCMRGDLWGPGTLVTVSS VL 1: DIQMTQSPSTLSASVGDRVTITCQASESITRYLNWYQKKPGKAPKLLIYDASKLPSGVPSRFSGSGSGTEFTLTISSLQPDDFATYYCQSTSFRGRSYQNTFGGGTKVEIK VH 2: EVQLVQSGAEVKKPGASVKVSCKASGFTFTSYYIHWVRKAPGQGLEWIGWIYPENDNTKYNEKFKDRVTITADTSTSTAYLELSSLRSEDTAVYYCARDGYSRYYFDYWGQGTLVTVSS VL 2: DIVMTQSPDSLAVSLGERATINCKSSQSLLNSRTRKNYLAWYQEKPGQPPKLLIYWASTRESGVPDRFSGSGSGTDFTLTISSLQAEDVAVYYCTQSFILRTFGQGTKVEIK | 26.6 nM and 25.6 nM | 0.0383 s⁻¹ and 0.0376 s⁻¹ | 1.44e+06 M⁻¹ s⁻¹ and 1.47e+06 M⁻¹ s⁻¹ | 26.1 |  |  |  |  | 3.63 | 0.000512 | 141000 |
